Experimental findings from a protein production outcome set (Wang et al. 2014) are described below.

This series in a line: label from the status in PepcDB records.
Consider “MKKRAVLILSMMLAAQAAFYTSSNTASAAIGEAVIATDEINVRSGPGLSHEIVSVVSRNESYPILEERGDWVQIQLNGGQKGWVVSWLIKKKSQVSSGSDSASGKVTSSEANLRIRKGPGTSYEVQGVFPEGEQADLLKTDGKWIKISYQNITGWVYSDYVNQGSGAKQSQSSSSHASSSKSGTVGVSTLNVRSTASHQGRIIATLQRNASVTILNEQHGWYEIEFNGQKGWAASHYILEGNKQNSGTSETSSSSEAKRQATIVYEGTNVRSGPSTSSAIVKRTGKGESYPIVSTKGDWYEIKLSNGDSAYVASWVVQTVDQAGSAGDSKSAAPPLAKRSSSGGTIKNKTVVIDAGHGGHDSGTIGTRGTLEKRLTIKTATLLAAKLRADGVNVYMTRNDDSFVSLQSRVATSHYRNADAFISIHYDSFPNASVRGNTAYYYSPSKDRKLAADVQSEIERHSPLPSRGVLFGDYFVLRENKQPAALFELGYLSHPQEEAVVSTNAYRERVTDGIRSGLENYFD”, for which the protein production entry is on record as “failed”.

In the case of “MKKRHLLIAGLACMTILGACNNDDAGSSGQAVVEVDGHEISDAEFVDMLKERYGEAILQELVQRHLISQAADSVEIPQEEIDEELETFKSQIGVETDDEMLDALSNQFGITVENKEEFVNEYILPPLVLEKLAVEGVEITDEEKQAYFDENRDSLIEVEASHILVEDEETAEEVLDRLEAGDDFAELASEYSVDPSAEANNGDLGFFGKGDMVPEFEEAAFNMEIDEVSEPVESTYGYHIILVTDRKDSYEELEEKIHDTLMRERSRTQEEVLRDLLAQADINVLDDQFEGLFDLPDAPPVEDTPEIDGEDASDEAEDQAEDADENAEEEDES”, the protein production entry is listed as “failed”.

As for “MKKRILAVAVTSMLLSASVFAQETVVPSRVGDLKFESDFPTQETMKNMLNEMDFQRATQAYLWGIPASSIMEWLNVSRNDFKFEEGQMGFFNTLKQKQGIITANFTTPYVIGTWNLEKTGPLIINLPEAKMAGMMLDVHQRVLSDLSLLGPDKGKGGKYLIVPPGEKYKDLNPKGYYVIRPKTNVVYGGIRILEPDVDRVVKQVVPNITTQPYADGKLGRKIPVAQVPEIDWTHIPKDGLEYWKTIHQIIQENPVEERDRFVMAQLKFLGIEKGKPFNPTEEQKKILLEASKVGRAMAQSNDYTKRFTQPYWKGTNWKDAISVSLDQRSENYDELDERAAWFYEAITVSRGMKSTIPGFGQRYLVTYQDSDGNWLSGEHTYKLHVPANVPASNFWSTTVYDENNRLMIINDAGSPDISSRKNLKVNSDGSIDVYYGPKPVKGYENNWVQTNPGEGWFTYFRFYGPTEKMFDKSWTMGDIELVKLEHHHHHH”, the protein production entry is given as “not failed”. The result for “MKKRLLLFILVLGVCLFTSCGNFVKTNIYFSAAESAFDSGKYEDAIKYYDKVIEADSGNAMAYLGKGLALDALGKYEEALEFFDKAIEINKDLAKAYNAKGTTLASLERYEESLENFKKAAELKPKNSAYQNDVAYGLNNLGRFEEAIQYAEKALKLNPRSGVAYSNKGFALDALGKLDEAIECYDKAIELSPTYTNAYYNKSIAVFKMGKTEEAIELLDKVLEIDPDDLDAITSKGYCLNELGKYEKAIECFDTAIEKYPKDPYPYVCKATSLYYLGKYDNALEECNKAIKLEYTFPDSYIWKAKILVEKGDIEEARKSCDEFLAIAEDASVYDMKGQIYLHEYNYPEAIKLFDKAIEVDPSYEDSYINKIYCLYLQKNYKECIEFATKVQTIFPNSADIPWYIGDCYSIMMEPEKAIEYLKKAHELNPKDVGILTSIAWEYYSLEDYAKASEYAEKAAEISADDESVKYIREKLENQKLPEAEQIVEFVKNNYLYYDKIANFEALANEFKAKGEVGVKDICNFIESIRQKDDMFTFVIHGDDYDLLKYEESISQVTSQQLEPNIHYIKIKSFTASVSWEFKEIIDSIENPEEKVLVIDLRDNLGGLATSSADILDYLLPACTTSYIVYRDGYMYSYYSDAAQTKFKKILVLVNEYSASSSEILALGLKKHLNNVVIIGRPTVGKGVGQLVYENKSKKYMIYLVSFYWNVMEENILGKRIEPDVYVNSSSDAAYMNEVKRQAAR” reads “failed”. “MKKRVQNKRFARTICDGNNPSQIATDLRDICEGEKTRRFSVANFARDNSLAILREICEELARTKKFLAKSLQIARDLQVQILFCGNFCDETYKDRDFAGWLKLYVTNGCENELLLLWLYEIVQEPRSKITTAKSFVVDVNANKTYAKFKPFILASQAFYLTRV”: the protein production entry was “not failed”. The value for “MKKSILFTFVLCLLSQWSVAQAPKWVEKAKRSVFSIVTYDKDDKIQNTGNGFFVTEDGVALSDYSLFKGAQRAVIINSEGEKMPVECILGANDMYDIIKFRVGITVKKVPALQVAALAPAVGAEVYLLPYSTQKGGNVTRGKVKKVDNIGGDKYHYYTLDMVLKDKMVSCPVTTADGKVFGVAQKSSGQDTASISYAAGAAFAMSQNISALALSDPALNAIGIKKGLPEDEDQALVYLFIASTQSTPEAYAIALDDFIKTFPNSADGYLRRAGNYVFADKDENHMDKAAADLEHALKVAQKKDDTYYNIAKLIYNYQLSKPETVYKDWTYDQALENVRSAIAIQSLPVYQQLEGDILFAKQDYAGAFASYDKVNQTELASPASFFSAAKAKELSKAAPEEVIALLDSCIARCQTPITSDLAPYLLERAQMYMNVEKYRLALADYDAYFNAVKGSVNDLFYYYREQAAFKAKQFQRALDDIAKAIELNPEDLTYRAEQAVVNLRVGRYEEAEKVLKDALAIDPKYAEGYRLLGICQIQLKQEKAACASFAKAKELGDPNVDELIKKHCK” was “failed”; that for “MKKSLTLVLVVVSILIFSQTFKLEKVLGFSDISSLAFKDGYLLLGTGNGEIIVYKDGSYYRAFKVHDNRVNEVTFENGFIVSASDDKTVGVTNLETGEIKLLKGHMKGVSSVAVAGSKILSASFDGTVRVWSFPDGGEISSQKLGPSVVQIAAHENRYVVGLANGLALIRDLSNQSFSIPLKAHPEGIKKIVFSENGQLIATCGGNTVKVWNASNGNLVLQYDHVITVNDVAFLENDSLIFVADDYKAVVLNIQKNEVVKSIDAHNNFVLFVSSDDGSIATYGMDKTVKVWNANLELQYSLYGHQLSVNTVALSSDRKFIVSGSDDREILIWNTEKGIAEHRIKALSGVRKLLTVENNIISCLDSNQLKIYNLENGKLVKRIKVGTTSTMDIALQNDRMAVGFYDGSVALFRYPSFEEIWRKDTEHEMIQTIDMNNKFIAFGVSYSDPKDKIGYVEVLSADTGERVFLLEGHRGNVNAVKFAGDFLVSGGEDGKVILWNLDTGSKVKEIYLNEPVSSLFVDEKELFVGTWNGSIKIFAFPDLTLKTSLKASDQKIGHLIKVGNHLVVPCGDGKIRILVEK” was “failed”; that for “MKKTFEKVYHLKLSIKGITPQIWRRIQVPENYTFLDLHKAIQAVMDWEDYHLHEFEMVNPKTGMLDKIGAEGDDFDAFGGPLVSEKKAKLSDYFTLENKEALYTYDFGDNWQVKVRLEKILPRKEGVEYPICTAGKRAAVPEDSGGVWGYEEMLEVLKDSEHEEYEDTVLWLGDDFDPEYFDPKDVSF” was “not failed”.

With “MKKVFIPINTKIPVERQFPNRVPIWGNYEFIISTKEPEQEYDYVVVLDDIEYSLRLMCCKQNICLFTGEPPYVKLYPRKYLNQFGHVYTCQSSVLKRDNACLSYPALPWMLYYNFYNDKQKEELLIDYDFLKNRPTLQRKNKICLFTSNKKISKGHIERIKFALKLQEEMPDLIDIYGSGFTNVDYKYEVMVQYKYAIVIENCSYPYYWTEKLADTFLSGCYPIYFGDPHIGDFFSKEEMAVIDIRNFDESKQTIKKIIDNNVYEKQYENICHARDKILDKYNMFSLISSTLDSIPAKLDKEKLLLSPMRLSVFDRIRNRIYRLFYLEHHHHHH”, the protein production entry is “failed”. The result for “MKKVLVGLLAIMVMIIASGYTYYKMNYGGESYYVQILVNGEREETTADDHTPMVIYHYKLDSFNSKGDKKLVKFMASHNLRNQAYLELTYNKHKGVTNWNEVQEKEIPKPALKELQSLENLEHHHHHH” reads “failed”. The result for “MKKVTIVGGNGTVGRVLAGGLAGEGYEVTVLDLKEPDDKQAVRFIRVDATDYNEVVKSIPAQTNALINLLAVKPSGDLLDRQEFAKMTDIFFKATYTILRAAAELGVPKVVFASSNHVTDVYEKGGDSLLGRQINTNDYPQSKSLYGLLKLASENLGYLFSHQLDAKVSVINLRIGTAAENELETLHAKPRSKKTLLSHPDLIGIFKAAIKSGKTYGTYYAVSDNKGRPWSIDSAIRELGYRPQVSASDILDED” reads “failed”; that for “MKKYILIGLGGAIGAILRCFIRNTKIPVYKGEFPISTLMINLSGAFILAVILITANEIWSFNEEIRLGIATGFVGAYTTFSTMCKETIILMNKNLYFLAFCYVTVSVVFGLLFAYFGALSARKILSRLLKVRKEDEKAS”, “failed”; that for “MKKYLDKLQNMPIGISGTCLAFITLSNSWNLKGINYFKPIAIFLAVCMLSLMILRLIRFPKVMYEELKNPVTGTFYPTMGMVVWLVSGFFYPYFPVVCSWLWIAAVIYHYGIVIFYTIIRIKERKFENIMPTCFIVYTGMITGSVASKGMDGVIPQIPQIAHFMLMFGFIFYTILLPLVLYIVFKSEILDDHKLPTVGIICSPAPLGVVGILTIEPNPNPYMLAWLIITGLILLVVVYGYILKLFKEGFKPSYAAFTFPLAIATLSAFKLSTYFTGLGYAKMANLFKFLGDVEIFIATYVIFFMLLNFLNMFFKAISPKLGEYVEEEEELIGGTLYSK”, “failed”. The result for “MKLAKKMILAAAVLPLTLGTTAALAYGGHGWDKEGDGHCGDRGERGIWKQLDLTAEQQAQLKEMREAGREEMRANRGQSHDAMKALHAQERALVLAADFDQAAAENLAKQMVDQQVTHRVKMMEKRHQMMSILTAEQKAKLQTLQQEKMAECMQDGQHGKGKKHASQLEHHHHHH” reads “not failed”; that for “MKLAYWMYAGPAHIGTLRISSSFRNVHAIMHAPLGDDYFNVMRSMLERERNFTPVTTSVVDRNVLARGSQEKVIDNILRKDTEERPDLIVLTPTCTSSILQEDLQNFVERAKESAQCDVLLADVNHYRVNELQAADRTLEQIVRFYLDRAQRQGTLPSQRTEQPSVNILGMTTLGFHNRHDTTELQRLMADLGITVNAVIPAGASVEELQHLPRAWFNLVPYREVGLLTAQYLQDTFDQPMVAIAPMGITATADCIRQIQQVLNQQGAAVDFEPFIDRQTRFASEAAWFSHSIDCQNLTGKRAVVFGDNTHAAAFTKILSREMGIHVVLAGTYCKHDADWFEAEVAGYCDRVLISDDHNAIADAIAELEPAAIFGTQMERHVGKRLNIPCGVIAAPVHIQNFPVGYRPFVGYEGANQIVDLVYNSFTLGMEDHLLEIFGGHDTKEVLTKTVSAGSDLDWKPDGLTELNRIPGFVRGKVKRNTEKYAREQGLTAITAEVLYAAKEALGALEHHHHHH”, “not failed”; that for “MKLDEIARLAGVSRTTASYVINGKAKQYRVSDKTVEKVMAVVREHNYHPNAVAAGLRAGRTRSIGLVIPDLENTSYTRIANYLERQARQRGYQLLIACSEDQPDNEMRCIEHLLQRQVDAIIVSTSLPPEHPFYQRWANDPFPIVALDRALDREHFTSVVGADQDDAEMLAEELRKFPAETVLYLGALPELSVSFLREQGFRTAWKDDPREVHFLYANSYEREAAAQLFEKWLETHPMPQALFTTSFALLQGVMDVTLRRDGKLPSDLAIATFG”, “failed”. Regarding “MKLFTTALFAIAFGIVIGLSFPSLWITEIWEPSNPRGAERLPSGIIASESDLYLRRLWGNPDEDLVKQPRYLATFTVGYNQRHNIDACVSKFSENFTIVLFHYDGVTSAWNDEFEWSRNAIHISVKKQTKWWYAKRFLHPDIVARYDYIFIWDEDLGVDHFNAEEYIHIVKKHDLEISQPGLDPETGFNWQITKRREHSEVHKETDEKLDWCSNPPRPPCAAFVEIMAPVFSRDAWRCVWHMIQNDLVHGWGLDFALRRCVEEPAFEKIGIVDSQWIVHQFIPSLGNQGKADNGKAPWQGVRDRCQMEWKMFENRVEAAEKDYFRSLQVESPSNSTTSH”, the protein production entry is “failed”.
